Test results reported in publication PMC4020817.

How the values were obtained:
[1] = target: recombinant APOBEC3A (rA3A) (human) (UniProt P31941); assay: SEC; rA3A without concentration on a Superose-12 gel filtration column (FPLC) with protein standards, in the buffer used for measuring deaminase activity; fractions immunoblotted with anti-A3A antibody
[2] = test system: rA3A wild type (Homo sapiens); assay: fluorescence binding titration; conditions: EMSA: 0.5 pmol oligo, 2 ug rA3A in 10 ul deaminase buffer (composition not given), 4 C, 1 h, 6% native PAGE. Intrinsic fluorescence: 225 nM rA3A, 25 mM Tris pH …
[3] = target: A3A E72A/delWG104-5 E72A;del104-105 (Homo sapiens) (UniProt P31941); assay: extrinsic fluorescence titration; conditions: EMSA: 0.5 pmol oligo, 2 ug rA3A in 10 ul deaminase buffer (composition not given), 4 C, 1 h, 6% native PAGE. Intrinsic fluorescence: 225 nM rA3A, 25 mM Tris pH …
A3A E72A/delWG104-5 E72A;del104-105 (Homo sapiens), sequence (P31941 other isoform, or with tags, fused parts or gaps E72A E72A): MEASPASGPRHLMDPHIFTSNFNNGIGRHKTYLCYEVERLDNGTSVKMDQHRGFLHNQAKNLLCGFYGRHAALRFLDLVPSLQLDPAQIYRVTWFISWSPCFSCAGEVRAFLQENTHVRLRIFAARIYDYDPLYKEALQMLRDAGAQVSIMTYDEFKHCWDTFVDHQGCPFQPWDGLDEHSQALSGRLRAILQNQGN

recombinant APOBEC3A (rA3A), P31941 1-199 (enzyme; other documents disagree on this pair), sequence (P31941 whole entry): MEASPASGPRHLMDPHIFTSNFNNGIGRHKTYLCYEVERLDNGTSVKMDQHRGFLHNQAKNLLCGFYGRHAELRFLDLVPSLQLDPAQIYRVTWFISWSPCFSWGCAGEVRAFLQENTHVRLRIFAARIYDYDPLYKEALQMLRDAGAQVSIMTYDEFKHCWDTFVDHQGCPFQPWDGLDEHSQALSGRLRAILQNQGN

| stoichiometry N [1] | Substance | Kd [2] [µM] | binding signal (fold higher affinity than wild type) [3] |
| --- | --- | --- | --- |
| 2 | recombinant APOBEC3A (rA3A), P31941 1-199 (enzyme; other documents disagree on this pair) |  |  |
|  | ssDNA oligo of fluorescence Kd assays | 0.158 | 3 |
